{"source": "patent US9347942B2", "about": "“Ultrasensitive cell based sensors and uses thereof” (CANVAX BIOTECH SL, priority 2010, dated 2016)", "format_in_all_cases": "cell-based", "key": {"SSTR2": {"biological_target": "T1, SSTR2 (Homo sapiens, UniProt P30874)", "T1 construct": "the entire human GPCR; mouse immunoglobulin kappa signal peptide (N); expressed in transfected cells", "T1 sequence (P30874 2-369)": "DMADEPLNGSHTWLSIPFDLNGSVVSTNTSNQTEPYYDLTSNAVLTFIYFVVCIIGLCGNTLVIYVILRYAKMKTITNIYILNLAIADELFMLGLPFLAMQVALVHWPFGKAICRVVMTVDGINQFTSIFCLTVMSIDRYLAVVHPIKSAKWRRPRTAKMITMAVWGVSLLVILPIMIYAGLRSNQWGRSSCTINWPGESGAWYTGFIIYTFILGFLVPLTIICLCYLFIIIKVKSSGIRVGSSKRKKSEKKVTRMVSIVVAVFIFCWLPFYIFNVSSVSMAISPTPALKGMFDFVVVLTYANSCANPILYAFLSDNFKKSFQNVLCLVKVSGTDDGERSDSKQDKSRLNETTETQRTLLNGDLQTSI", "assay": "Agonist-induced exocytosis of granzyme B, sandwich ELISA (Example 9)", "details": "agonist 10 uM, 60 minutes", "from_the_text": "(§1) Human granzyme B was selected as reporter, chimeric promoter of hCMV-MoLV5′LTR as promoter for reporter expression, RBL-2H3 as hemopoyetic cells with professional regulated exocytosis and several GPCRs as exocytosis modulators under the control of Moloney Leukaemia virus 5′-LTR (MoMLV5′LTR, SEQ ID NO:3) as promoter for expression of exocytosis modulators. […] Vectors for expression of granzyme B had the chimeric promoter of hCMV-MoLV5′LTR-GranzymeB-IRES-NGFR with hygromycin resistance for stable transfections. Vectors for GPCR were electroporated first, cells were selected with neomycin at 500 ug/mL for about two weeks and cells were analysed by flow cytometry (Guava Technologies, USA) with anti-cmyc tag antibody (anti-cmyc-FITC, clone 9E10, Sigma-Aldrich, USA) for surface expression. Positive cells were separated by magnetic separation using anti-cmyc monoclonal antibody conjugated to biotin (Miltenyi Biotec, Germany) and streptavidin-MACS (Miltenyi Biotec, Germany). After growing positive fraction of cells was again analysed by flow cytometry with the anti-cmyc tag antibody. Positive cells were individually electroporated with the vector for expression human granzyme B using a microporator (Digital Bio Technology, South Korea) and after 48 hours hygromycin at 1500 ug/mL and neomycin at 500 ug/mL were added to culture for selection. After selection for about 2 weeks cells were analysed by flow cytometry (Guava Technologies, USA) with an antibody against NGFR coupled to FITC. Positive population where magnetically separated by MACS using anti-NGFR-MACS sup.R (Miltenyi Biotec, Germany). Sorted populations were again analysed again by flow cytometry to check both the expression of the GPCR with the anti-cmyc tag antibody and with anti-NGFR antibody to check granzyme B expression. […] GPCRs included were: SSTR2 and CHRM2 as alpha-i coupled GPCRs; AGTR1 and bradykinin type B1 receptor (BDKRB1) as alpha-q coupled GPCRs and AVPR2 as alpha-s coupled GPCR. […] Cells were seeded the night before experiment at 100.000 cells per well of a 96-well microplate in 100 uL of complete cell culture medium. Next day cells were washed with HBSS buffer and incubated with the ligand (agonist) at 10 uM of each GPCR in 30 uL of HBSS buffer at 37 Celsius degrees for 60 minutes and after centrifugation at 400 g for 5 minutes supernatants were analysed for human granzyme B protein by a sandwich ELISA specific for human granzyme B (Ucytech, Netherlands)."}, "AGTR1": {"biological_target": "T2, AGTR1 (Homo sapiens, UniProt P30556)", "T2 construct": "the entire human GPCR; mouse immunoglobulin kappa signal peptide (N); expressed in transfected cells", "T2 sequence (P30556 2-359)": "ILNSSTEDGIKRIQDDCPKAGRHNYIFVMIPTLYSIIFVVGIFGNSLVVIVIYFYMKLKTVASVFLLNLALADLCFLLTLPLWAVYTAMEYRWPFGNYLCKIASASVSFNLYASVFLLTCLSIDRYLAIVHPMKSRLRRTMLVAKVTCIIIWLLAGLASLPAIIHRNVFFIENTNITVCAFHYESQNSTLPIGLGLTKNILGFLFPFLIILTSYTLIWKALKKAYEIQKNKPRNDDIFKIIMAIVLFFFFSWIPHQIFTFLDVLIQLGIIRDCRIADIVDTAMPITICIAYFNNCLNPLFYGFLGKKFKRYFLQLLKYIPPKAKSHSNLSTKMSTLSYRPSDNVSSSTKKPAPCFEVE", "assay": "Agonist-induced exocytosis of granzyme B, sandwich ELISA (Example 9)", "details": "agonist 10 uM, 60 minutes", "from_the_text": "as §1"}, "[1]": {"biological_target": "T3, bradykinin type B1 receptor (Homo sapiens, UniProt P46663)", "T3 construct": "the entire human GPCR; mouse immunoglobulin kappa signal peptide (N); expressed in transfected cells", "T3 sequence (P46663 5-353 limits assumed)": "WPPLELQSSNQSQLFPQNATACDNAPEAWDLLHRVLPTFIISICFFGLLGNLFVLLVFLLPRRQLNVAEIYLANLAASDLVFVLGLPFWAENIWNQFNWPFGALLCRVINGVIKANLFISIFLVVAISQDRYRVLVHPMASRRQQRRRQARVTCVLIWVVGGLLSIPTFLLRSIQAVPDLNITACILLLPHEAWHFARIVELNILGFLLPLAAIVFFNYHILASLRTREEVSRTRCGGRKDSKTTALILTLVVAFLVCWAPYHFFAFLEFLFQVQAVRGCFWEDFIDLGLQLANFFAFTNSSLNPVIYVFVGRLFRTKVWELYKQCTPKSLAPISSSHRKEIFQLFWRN", "assay": "Exocytosis time optimisation, granzyme B FRET readout (Example 12)", "details": "agonist 10 uM", "from_the_text": "An experiment was designed to optimize assay conditions such as: exocytosis time, number of steps needed for assay and uses of cells in suspension. Cells developed in example #9 expressing both a GPCR and human granzyme B were used in this example for optimization of exocytosis time. GPCRs included were CHRM2 (an alpha-i coupled GPCR) and bradykinin type B1 receptor (an alpha-q coupled GPCR). Carbachol and kallinin from Sigma-Aldrich (USA) were used as ligands for CHRM2 and bradykinin type B1 receptor, respectively and used at 10 uM final concentration in HBSS buffer. Cells were seeded the night before experiment at 20.000 cells per well of a 96-well microplate in 100 uL of complete cell culture medium. Next day cells were washed with HBSS buffer and incubated with the ligand (agonist) at 10 uM of each GPCR in 30 uL of HBSS buffer at 37 Celsius degrees for 5, 15, 30 or 60 minutes and after centrifugation at 400 g for 5 minutes supernatants were analysed for human granzyme B activity using FAM-[…]-TAMRA at 1 uM final concentration as the human granzyme B substrate. Released FAM was measured by excitation at 485 nm and emission at 535 nm in a BMG Labtech microplate fluorimeter in 96 well microplates. Microplates were incubated at 37 Celsius degrees on the reader and were kinetically read at 0, 15, 30, 45 and 60 minutes. Control wells with substrate only in HBSS buffer were included to subtract autofluorescence of substrates to both cells treated with ligands and to cells treated with HBSS buffer only. […] The signal to background is lower at longer exocytosis times due to the higher increase in basal release than the increase in specific signal after the first 5 to 15 minutes. Thus, any exocytosis time from probably less than 5 minutes to at least 60 minutes may be used for the methods of the present invention but longer exocytosis times produce a sensor with a lower signal to background, exocytosis is nearly complete at 5 minutes and signal to background is good for a robust sensor."}, "[2]": {"biological_target": "T4, bradykinin type B1 receptor (BDKRB1) (Homo sapiens, UniProt P46663)", "T4 construct": "the entire human GPCR; mouse immunoglobulin kappa signal peptide (N); expressed in transfected cells", "T4 sequence (P46663 5-353 limits assumed)": "T3 sequence (P46663 5-353 limits assumed)", "assay": "Agonist-induced exocytosis of granzyme B, sandwich ELISA (Example 9)", "details": "agonist 10 uM, 60 minutes", "from_the_text": "as §1"}, "[3]": {"details": "100.000 cells, dilution 2250, after subtraction of 0.2 blank"}}, "data": [{"compound": "CC(C)[C@@H]1NC(=O)[C@H](CCCCN)NC(=O)[C@@H](Cc2c[nH]c3ccccc23)NC(=O)[C@H](Cc2ccc(O)cc2)NC(=O)[C@H](C)N(C)C(=O)[C@H](Cc2ccccc2)NC1=O", "note": "[Seglitide, seglitide]", "values": [{"measurement": "Absorbance at maximal dilution of ELISA tested", "setting": "SSTR2; [3]", "result": 2.4}, {"measurement": "Sensitivity (minimal amount of cells needed)", "setting": "SSTR2; granzyme B ELISA", "result": "<150", "unit": "cells"}]}, {"compound": "angiotensin", "values": [{"measurement": "Absorbance at maximal dilution of ELISA tested", "setting": "AGTR1; [3]", "result": 1.8}, {"measurement": "Sensitivity (minimal amount of cells needed)", "setting": "AGTR1; granzyme B ELISA", "result": "<150", "unit": "cells"}]}, {"compound": "kallinin", "values": [{"measurement": "exocytosis, % of maximal", "setting": "[1]; 5 minutes, 20.000 cells", "result": "> 90", "unit": "%"}, {"measurement": "signal to background (S/B)", "setting": "[1]; medium taken at 5 to 15 minutes", "result": "20-22"}, {"measurement": "signal to background (S/B)", "setting": "[1]; medium taken at 30 minutes", "result": "15-17"}, {"measurement": "signal to background (S/B)", "setting": "[1]; medium taken at 60 minutes", "result": "8-10"}, {"measurement": "Absorbance at maximal dilution of ELISA tested", "setting": "[2]; [3]", "result": 0.8}, {"measurement": "Sensitivity (minimal amount of cells needed)", "setting": "[2]; granzyme B ELISA", "result": "<150", "unit": "cells"}]}]}
